From publication PMC10572780, “MucR from Sinorhizobium meliloti: New Insights into Its DNA Targets and Its Ability to Oligomerize” (International Journal of Molecular Sciences, 2023)

Columns and labels:
[1] = molecular target: T1, rMucR (recombinant MucR) (Sinorhizobium meliloti 1021, UniProt P55323 1-143); assay: competition; vs FAM-rem site3; 5-, 10-, 20-fold excess; does not effectively compete; 25 mM HEPES pH 7.9, 50 mM KCl, 6.25 mM MgCl2, 5% glycerol; 10 min on ice (plus 10 min on ice after competitor); 5% polyacrylamide gel, 0.5x TBE, room temperature, 200 V, 70 min; conditions: protein: recombinant; tags: none (pET22b+, NdeI/XhoI, native stop codon in reverse primer); chain copies: 10
T1 sequence: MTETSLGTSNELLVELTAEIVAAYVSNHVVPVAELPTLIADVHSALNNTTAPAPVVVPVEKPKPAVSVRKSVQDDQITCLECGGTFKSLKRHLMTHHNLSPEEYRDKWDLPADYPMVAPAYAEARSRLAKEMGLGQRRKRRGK

[2] = molecular target: the molecule itself; assay: SEC-MALS; samples at 1 mg/mL on Superdex 200 in the buffer of the final purification step, 0.5 mL/min; MiniDAWN Treos; higher-order oligomer, no monomer or lower-order oligomers seen
[3] = molecular target: T1, rMucR (recombinant MucR); assay: EMSA; 10 pmol DNA; 25 mM HEPES pH 7.9, 50 mM KCl, 6.25 mM MgCl2, 5% glycerol; 10 min on ice (plus 10 min on ice after competitor); 5% polyacrylamide gel, 0.5x TBE, room temperature, 200 V, 70 min; conditions: protein: recombinant; tags: none (pET22b+, NdeI/XhoI, native stop codon in reverse primer); chain copies: 10
[4] = molecular target: T1, rMucR (recombinant MucR); assay: EMSA; 20 pmol rMucR, 10 pmol DNA, no competitor; 25 mM HEPES pH 7.9, 50 mM KCl, 6.25 mM MgCl2, 5% glycerol; 10 min on ice (plus 10 min on ice after competitor); 5% polyacrylamide gel, 0.5x TBE, room temperature, 200 V, 70 min; conditions: protein: recombinant; tags: none (pET22b+, NdeI/XhoI, native stop codon in reverse primer); chain copies: 10; label: FAM
[5] = molecular target: T2, native MucR (Sinorhizobium meliloti 1021, UniProt P55323 2-143); assay: EMSA; 25 mM HEPES pH 7.9, 50 mM KCl, 6.25 mM MgCl2, 5% glycerol; 10 min on ice (plus 10 min on ice after competitor); 5% polyacrylamide gel, 0.5x TBE, room temperature, 200 V, 70 min; conditions: protein: native; tags: none
T2 sequence: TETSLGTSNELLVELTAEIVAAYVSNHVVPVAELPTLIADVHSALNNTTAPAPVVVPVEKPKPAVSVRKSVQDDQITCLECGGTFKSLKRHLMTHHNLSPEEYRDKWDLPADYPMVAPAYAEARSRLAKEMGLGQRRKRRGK

[6] = molecular target: T1, rMucR (recombinant MucR); assay: EMSA; minimal length with detectable binding; 25 mM HEPES pH 7.9, 50 mM KCl, 6.25 mM MgCl2, 5% glycerol; 10 min on ice (plus 10 min on ice after competitor); 5% polyacrylamide gel, 0.5x TBE, room temperature, 200 V, 70 min; conditions: protein: recombinant; tags: none (pET22b+, NdeI/XhoI, native stop codon in reverse primer); chain copies: 10

B1: rem site3 mut2 (dsDNA)
DNA 1: CGCGCGGCCCCCGGCCGGCCGCCGGGGCCC
DNA 2: GGGCCCCGGCGGCCGGCCGGGGGCCGCGCG
- binding result [1]: no binding

B2: recombinant S. meliloti MucR (natural protein, Sinorhizobium meliloti 1021, UniProt P55323 1-143, looked up)
chain: T1 sequence
notes: Expressed with 100 uM zinc sulfate; Oligomer by SEC-MALS corresponds to a decamer (9 to 12 protomers not excluded); also called rMucR; recombinant MucR; source: E. coli BL21(DE3), pET22b+, purified (cation exchange chromatography, size exclusion chromatography); copies: 10
- stoichiometry N [2]: 10

B3: rem site2 (dsDNA)
DNA 1: CATCATGTTAGTGGTAAGGTTAACGATCAC
DNA 2: GTGATCGTTAACCTTACCACTAACATGATG
- binding result [3]: binds

B4: MucR purified from S. meliloti (natural protein, Sinorhizobium meliloti 1021, UniProt P55323 2-143, looked up)
chain: T2 sequence
notes: MucR from Sinorhizobium meliloti 1021, naturally expressed; 9 to 12 protomers not excluded; also called native MucR; naturally expressed MucR; source: endogenous, purified from S. meliloti 1021 (cation exchange chromatography, size exclusion chromatography); copies: 10
- stoichiometry N [2]: 10

B5: rem site3 (dsDNA)
DNA 1: CACGCAATTCTTAATCAACTATTAAAATCC
DNA 2: GGATTTTAATAGTTGATTAAGAATTGCGTG
- binding result [3]: binds

B6: FAM-labeled rem site3 (dsDNA)
DNA 1: B5 DNA 1
DNA 2: B5 DNA 2
- binding result [4]: binds

B7: ndvA upstream region oligonucleotide (dsDNA)
DNA 1: GATAATTCTTCATATCACGCCCGGTCTTGCAGGAAACCTGCAAAAACTCGGAGTCGAGGCATCAAGATAGCTAACGATGAATCAT
DNA 2: ATGATTCATCGTTAGCTATCTTGATGCCTCGACTCCGAGTTTTTGCAGGTTTCCTGCAAGACCGGGCGTGATATGAAGAATTATC
- binding result [5]: binds

B8: rem site3 18 bp (dsDNA)
DNA 1: ATTCTTAATCAACTATTA
DNA 2: TAATAGTTGATTAAGAAT
- binding result [6]: binds

B9: rem site1 (dsDNA)
DNA 1: ATCACCTACTAGATATAGGCCCAAATCGGC
DNA 2: GCCGATTTGGGCCTATATCTAGTAGGTGAT
- binding result [3]: binds
